Data as given in patent US20120100160A1.

Target: murine LFA-1 (on TK1/TK-1 cells or primary murine splenocytes) (murine) (UniProt P24063)
Experiment: cell-based or functional assay

Chain of UniProt P24063 (P24063 24-1162, chain 1 of 2): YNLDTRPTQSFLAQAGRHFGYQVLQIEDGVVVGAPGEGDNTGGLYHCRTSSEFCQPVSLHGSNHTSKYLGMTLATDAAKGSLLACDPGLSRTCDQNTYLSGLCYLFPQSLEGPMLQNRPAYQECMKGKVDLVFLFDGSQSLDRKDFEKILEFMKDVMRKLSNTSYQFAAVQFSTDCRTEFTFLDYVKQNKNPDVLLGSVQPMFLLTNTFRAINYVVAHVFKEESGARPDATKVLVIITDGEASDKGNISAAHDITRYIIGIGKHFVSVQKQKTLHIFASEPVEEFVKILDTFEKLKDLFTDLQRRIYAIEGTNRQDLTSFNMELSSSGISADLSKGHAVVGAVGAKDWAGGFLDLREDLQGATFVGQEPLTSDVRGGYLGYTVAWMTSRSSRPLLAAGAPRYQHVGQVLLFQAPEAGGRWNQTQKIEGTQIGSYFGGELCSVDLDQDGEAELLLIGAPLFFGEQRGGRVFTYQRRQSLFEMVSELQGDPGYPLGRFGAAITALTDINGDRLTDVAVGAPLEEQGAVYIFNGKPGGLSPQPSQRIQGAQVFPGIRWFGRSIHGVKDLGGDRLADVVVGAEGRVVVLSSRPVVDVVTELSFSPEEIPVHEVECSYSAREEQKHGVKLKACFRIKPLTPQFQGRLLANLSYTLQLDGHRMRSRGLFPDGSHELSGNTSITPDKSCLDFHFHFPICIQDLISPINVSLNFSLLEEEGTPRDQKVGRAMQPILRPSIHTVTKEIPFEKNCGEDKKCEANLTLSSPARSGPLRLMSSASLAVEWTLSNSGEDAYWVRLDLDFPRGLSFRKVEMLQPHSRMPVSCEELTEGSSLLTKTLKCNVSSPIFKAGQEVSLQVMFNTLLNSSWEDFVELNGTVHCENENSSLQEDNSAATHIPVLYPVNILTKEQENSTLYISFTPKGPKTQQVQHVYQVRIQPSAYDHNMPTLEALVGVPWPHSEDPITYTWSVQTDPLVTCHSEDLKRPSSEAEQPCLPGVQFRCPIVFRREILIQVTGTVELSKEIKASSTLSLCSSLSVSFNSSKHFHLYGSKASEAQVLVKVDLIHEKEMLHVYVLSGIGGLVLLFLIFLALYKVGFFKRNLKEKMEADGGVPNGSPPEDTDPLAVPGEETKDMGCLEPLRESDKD
Chain of UniProt P24063 (P11835 24-771, chain 2 of 2, further chain): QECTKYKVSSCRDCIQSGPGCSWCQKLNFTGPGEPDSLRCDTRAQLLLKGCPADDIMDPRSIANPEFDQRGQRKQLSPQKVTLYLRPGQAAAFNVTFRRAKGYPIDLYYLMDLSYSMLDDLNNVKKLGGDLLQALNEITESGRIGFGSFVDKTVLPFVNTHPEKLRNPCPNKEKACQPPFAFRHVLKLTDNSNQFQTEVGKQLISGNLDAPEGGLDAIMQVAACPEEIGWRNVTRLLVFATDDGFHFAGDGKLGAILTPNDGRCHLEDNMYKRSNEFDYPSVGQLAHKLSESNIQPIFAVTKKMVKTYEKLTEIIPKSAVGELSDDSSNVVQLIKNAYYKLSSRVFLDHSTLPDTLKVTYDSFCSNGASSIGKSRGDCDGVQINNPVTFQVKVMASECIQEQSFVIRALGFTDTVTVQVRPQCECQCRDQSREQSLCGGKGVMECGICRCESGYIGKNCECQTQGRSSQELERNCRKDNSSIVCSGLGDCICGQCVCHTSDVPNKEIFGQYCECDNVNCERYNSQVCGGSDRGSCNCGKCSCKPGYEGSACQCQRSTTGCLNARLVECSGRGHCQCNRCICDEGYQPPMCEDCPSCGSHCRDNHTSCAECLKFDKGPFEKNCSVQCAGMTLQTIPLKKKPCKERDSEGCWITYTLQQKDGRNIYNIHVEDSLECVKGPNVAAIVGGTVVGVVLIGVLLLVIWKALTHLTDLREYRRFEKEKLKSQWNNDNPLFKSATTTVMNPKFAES

Q: For “multimerized ICAM-1-protamine fusion protein (80 pmoles fusion protein with 10 pmoles anti-Fc Fab′2)”, which CD45 knockdown in TK-1 cells: subpopulation of CD45-low cells at the 6:1 ratio of siRNA to fusion protein is on record?
A: 14%
